Laboratory results: paper PMC10563445, “Extracellular microRNA 130b‐3p inhibits eCIRP‐induced inflammation” (EMBO Reports, 2019)
One block for each binder: values may come before it.

Assays:
TLR4/MD2 complex = TLR4/MD2 complex (human, UniProt O00206;Q9Y6Y9 24-631;19-160); experiment: SPR; RNA analyte 31.25-1000 nM, no rmCIRP; SPR (BIAcore T200), 1X HBS-EP running buffer; rmCIRP 7.8-500 nM over RNA; pH and temperature not stated; settings: protein: commercial
[1] = molecular target: T1, rmCIRP (recombinant murine cold-inducible RNA-binding protein) (mouse, UniProt P60824 1-172); experiment: SPR; RNA immobilized on SA chip; text misprints 8.4 x 10^8 M; SPR (BIAcore T200), 1X HBS-EP running buffer; rmCIRP 7.8-500 nM over RNA; pH and temperature not stated; settings: single strand
T1 sequence: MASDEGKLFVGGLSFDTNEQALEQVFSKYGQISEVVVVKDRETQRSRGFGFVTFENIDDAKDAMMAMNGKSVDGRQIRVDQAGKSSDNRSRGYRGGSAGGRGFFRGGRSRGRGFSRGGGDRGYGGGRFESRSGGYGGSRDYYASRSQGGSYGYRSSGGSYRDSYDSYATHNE

[2] = molecular target: T1, rmCIRP (recombinant murine …); experiment: SPR; RNA immobilized on SA chip; SPR (BIAcore T200), 1X HBS-EP running buffer; rmCIRP 7.8-500 nM over RNA; pH and temperature not stated; settings: single strand
human TLR4/MD2 complex [3] = molecular target: T2, human TLR4/MD2 complex (human, UniProt O00206 24-631; Q9Y6Y9 19-160); experiment: SPR; BIAcore T200; human TLR4/MD2 complex immobilised on a CM5 chip; rmCIRP (31.25-1,000 nM) incubated with a constant 50 nM miRNA 130b-3p mimic and injected as analyte; 1X HBS-EP; 1:1 binding model; settings: both partners purified
T2 construct: Toll-like receptor 4 (TLR4), human, recombinant, in the bought TLR4/MD2 complex; Myeloid differentiation factor 2 (MD2), human, recombinant, in the bought TLR4/MD2 complex; also called TLR4 and myeloid differentiation factor 2 (MD2) complex; source: bought: R&D Systems
T2 sequence (O00206 24-631, chain 1 of 2): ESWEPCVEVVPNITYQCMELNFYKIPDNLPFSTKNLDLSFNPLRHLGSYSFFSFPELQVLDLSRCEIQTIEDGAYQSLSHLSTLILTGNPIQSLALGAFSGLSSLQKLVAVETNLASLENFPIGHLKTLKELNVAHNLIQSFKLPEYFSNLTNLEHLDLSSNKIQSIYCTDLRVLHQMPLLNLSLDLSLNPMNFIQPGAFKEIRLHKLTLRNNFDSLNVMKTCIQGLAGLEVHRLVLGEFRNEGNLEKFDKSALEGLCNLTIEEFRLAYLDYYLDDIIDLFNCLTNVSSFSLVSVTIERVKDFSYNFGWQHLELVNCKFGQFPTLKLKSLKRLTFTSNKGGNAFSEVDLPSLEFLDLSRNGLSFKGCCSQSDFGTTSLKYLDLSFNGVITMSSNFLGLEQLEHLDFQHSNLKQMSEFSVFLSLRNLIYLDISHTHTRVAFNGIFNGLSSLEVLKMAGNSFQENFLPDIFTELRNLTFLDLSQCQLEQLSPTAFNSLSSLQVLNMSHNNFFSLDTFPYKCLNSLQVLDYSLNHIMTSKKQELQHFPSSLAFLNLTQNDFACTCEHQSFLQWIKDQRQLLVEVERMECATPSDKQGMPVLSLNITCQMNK
T2 sequence (Q9Y6Y9 19-160, chain 2 of 2): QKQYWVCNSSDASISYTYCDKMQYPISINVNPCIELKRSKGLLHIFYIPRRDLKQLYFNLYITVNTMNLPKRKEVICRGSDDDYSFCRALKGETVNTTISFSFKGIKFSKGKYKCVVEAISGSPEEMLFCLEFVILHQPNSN

human TLR4/MD2 complex [4] = molecular target: T2, human TLR4/MD2 complex; experiment: SPR; BIAcore T200; human TLR4/MD2 complex immobilised on a CM5 chip; rmCIRP (31.25-1,000 nM) incubated with a constant 100 nM miRNA 130b-3p mimic and injected as analyte; 1X HBS-EP; 1:1 binding model; settings: both partners purified
human TLR4/MD2 complex [5] = molecular target: T2, human TLR4/MD2 complex; experiment: SPR; BIAcore T200; human TLR4/MD2 complex immobilised on a CM5 chip; rmCIRP (31.25-500 nM) injected alone as analyte; running buffer 1X HBS-EP; 1:1 binding model; settings: both partners purified

Chain of TLR4/MD2 complex (O00206 24-631, chain 1 of 2): as the sequence (O00206 24-631, chain 1 of 2) above
Chain of TLR4/MD2 complex (Q9Y6Y9 19-160, chain 2 of 2): as the sequence (Q9Y6Y9 19-160, chain 2 of 2) above

Binder: CAGUGCAAUGAUGAAAGGGCAU (ssRNA) [miRNA 130b-3p mimic (analyte)]
binding result (TLR4/MD2 complex): no binding

Binder: UUCACAGUGGCUAAGUUCUGC (ssRNA) [miRNA 27b mimic (27b-3p), biotinylated]
Kd [1]: 83.5 ± 3.1 nM

Binder: CAGUGGUUUUACCCUAUGGUAG (ssRNA) [miRNA 140 mimic (140-5p), biotinylated]
Kd [2]: 160 ± 1.9 nM

KD with 50 nM miRNA 130b-3p mimic (human TLR4/MD2 complex [3]): 420 nM
KD with 100 nM miRNA 130b-3p mimic (human TLR4/MD2 complex [4]): 40000 nM
Kd (human TLR4/MD2 complex [5]): 116.5 ± 0.8 nM
B1: recombinant murine cold-inducible RNA-binding protein (natural protein, mouse, UniProt P60824 1-172, looked up)
chain: T1 sequence
notes: also called rmCIRP; recombinant mouse (rm) CIRP

Binder: CAGUGCAAUGAUGAAAGGGCAU (ssRNA) [miRNA 130b-3p mimic, biotinylated]
Kd [2]: 50.1 ± 3 nM
